Results: patent US20220185900A1 (Regeneron, published 2022)

T1: Macaca fascicularis (mf) RET.mmh (Macaca fascicularis)
T1 construct: also called monkey RET
T1 chain: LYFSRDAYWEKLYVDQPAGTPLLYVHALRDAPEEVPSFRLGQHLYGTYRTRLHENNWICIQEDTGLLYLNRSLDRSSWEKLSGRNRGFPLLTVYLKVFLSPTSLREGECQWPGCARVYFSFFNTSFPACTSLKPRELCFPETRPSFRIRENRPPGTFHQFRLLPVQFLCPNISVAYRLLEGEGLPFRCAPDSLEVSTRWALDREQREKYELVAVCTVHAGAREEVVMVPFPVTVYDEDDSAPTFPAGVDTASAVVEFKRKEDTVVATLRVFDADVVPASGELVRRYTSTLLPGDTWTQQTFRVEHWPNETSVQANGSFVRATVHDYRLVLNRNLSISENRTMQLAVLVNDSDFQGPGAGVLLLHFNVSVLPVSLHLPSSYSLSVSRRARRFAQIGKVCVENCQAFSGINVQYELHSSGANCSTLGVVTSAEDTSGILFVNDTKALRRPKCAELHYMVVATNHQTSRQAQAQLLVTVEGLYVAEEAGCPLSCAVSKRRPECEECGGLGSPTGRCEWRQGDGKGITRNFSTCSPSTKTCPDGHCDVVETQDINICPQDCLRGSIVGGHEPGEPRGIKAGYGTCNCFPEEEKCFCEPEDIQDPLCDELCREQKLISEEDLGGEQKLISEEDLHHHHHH


How the values were obtained:
[1] = biological target: T2, hRET.mmh (human, UniProt P07949 29-635, biotinylated in the ELISA of Example 4 (biot-hRET.mmh); not in the SPR of Example 3); assay: SPR Biacore T200, mAb capture, 25 C
T2 construct: also called biot-hRET.mmh; soluble monomeric human RET
Experimental: (§1) Binding affinities and kinetic constants of human anti-RET antibodies were determined by surface plasmon resonance (Biacore T200) at […] (Tables 2-3). […] Binding equilibrium dissociation constants (KD) and dissociative half-lives (t_{1/2}) were calculated from the kinetic rate constants as: KD [M]=kd/kₐ; and t_{1/2}(min)=(ln2/(60*kd). Calculations were performed using BiacoreT200 evaluation software v1.0.

[2] = biological target: T3, hRET.mFc (human); assay: SPR Biacore T200, mAb capture, 25 C
T3 construct: also called dimeric human RET
Experimental: as §1

[3] = biological target: T1, Macaca fascicularis (mf) RET.mmh; assay: SPR Biacore T200, mAb capture, 25 C
Experimental: as §1

[4] = biological target: T2, hRET.mmh; assay: competition sandwich ELISA: 1 nM biot-hRET.mmh + antibody, plate-coated GDNF/GFRα1 co-complex
Experimental: The ability of anti-RET antibodies to block the binding of human RET to pre-complexed plate bound GDNF:GFRα1 was assessed using a competition sandwich ELISA.
Antibody-RET mixtures were incubated for 1 hour at RT and then transferred to microtiter plates previously coated with the hGDNF/hGFRα1 co-complex. Binding was allowed to proceed for 1 hr at RT followed by extensive washing. […] Plates were read at 450 nm and data analysis used a sigmoidal dose-response model within Prism™ software.
The absorbance values of the wells containing the highest concentration for each antibody were used to determine the blocking percent at maximum concentration antibody tested.

[5] = biological target: T2, hRET.mmh; assay: SPR Biacore T200, mAb capture, 37 C
Experimental: as §1

[6] = biological target: T3, hRET.mFc; assay: SPR Biacore T200, mAb capture, 37 C
Experimental: as §1

[7] = biological target: T1, Macaca fascicularis (mf) RET.mmh; assay: SPR Biacore T200, mAb capture, 37 C
Experimental: as §1

Kd [1] [nM] | koff [1] [s⁻¹] | kon [1] [M⁻¹ s⁻¹] | t½ [1] [min] | Kd [2] [nM] | koff [2] [s⁻¹] | kon [2] [M⁻¹ s⁻¹] | t½ [2] [min] | % Max Blocking [4] [%] | IC50 [4] [nM] | Kd [5] [nM] | koff [5] [s⁻¹] | kon [5] [M⁻¹ s⁻¹] | t½ [5] [min] | Kd [6] [nM] | koff [6] [s⁻¹] | kon [6] [M⁻¹ s⁻¹] | t½ [6] [min] | Kd [3] [nM] | koff [3] [s⁻¹] | Binder | further results
2.38 | 0.000502 | 211000 | 23 | 1.32 | 0.000242 | 183000 | 48 | 82 | < 0.25 | 9.35 | 0.00267 | 285000 | 4 | 3.98 | 0.00107 | 269000 | 11 | – | – | H4H8080P (antibody, human IgG4, V domains shown, human IgG4 Fc (H4H prefix)) VH: EVQLVESGGGLVQSGGSLRLSCVASGFTFSTYAMTWVRQAPGRGLEWVSAISGSGASTYYADSLKGRFTVSRDNSKNTLYLQMNSLRAEDTAVYYCSKDHRNYDSDYDMDVWGQGTTVTVSS VL: DIQMTQSPSSLSASVGDRVTITCRASQGIRNYLGWYQQKPGKAPKRLIYTASSLQSGVPSRFRGSGSGTEFTLTISSLQPEDFATYYCLQHNSYPYTFGQGTKLEIK | binding result [3]: no binding
2.52 | 0.000484 | 192000 | 24 | 1.14 | 0.000224 | 197000 | 52 | 95 | < 0.25 | 9.04 | 0.00255 | 282000 | 5 | 3.02 | 0.0008 | 264000 | 14 | 3.44 | 0.000711 | H4H8083P (antibody, human IgG4, V domains shown, human IgG4 Fc (H4H prefix)) VH: QVQLVESGGGVVQPGRSLRLSCAASGFTFNNYVMHWVRQAPGKGLEWVALIWYDGSNKYYADSVKGRFTISRDNSKNALNLQMNSLRAEDTAVYFCARVSIAARNYYYGGLDVWGQGTTVTVSS VL: EIVLTQSPGTLSLSPGERATLSCRASQSVSSTYLAWYQQKPGQAPRLLIYGASSRATGIPDRFSGSGSGTDFTLTISRLEPEDFAVYYCQHYGGSPLTFGGGTKVEIK | kon [3]: 207000 M⁻¹ s⁻¹; t½ [3]: 16 min; Kd [7]: 14.2 nM; koff [7]: 0.004 s⁻¹; kon [7]: 283000 M⁻¹ s⁻¹; t½ [7]: 3 min
2.02 | 0.000257 | 127000 | 45 | 0.58 | 0.00012 | 207000 | 96 | 57 | 0.41 | 5.43 | 0.00106 | 195000 | 11 | 1.28 | 0.000335 | 262000 | 34 | 13.7 | 0.000882 | H4H8066P (antibody, human IgG4, V domains shown, human IgG4 Fc (H4H prefix)) VH: EVQLVESGGGLVQPGGSLRLSCEASGFTFSRYAMTWVRQAPGKGLEWVSGISGSGGSTFYVDSLQGRFTLSRDNSKHTLFLQMNSLRAEDTAIYYCAKENTYGHFDYWGQGTLVTVSS VL: DIQLTQSPSFLSASVGDRVTITCWASQDISTYLAWYQQKPGKAPQVLIYAASSLQYGVPSRFSGSGSGTEFTLTITSLQPEDFATYYCQQLIGYPYIFGQGTKLEIK | kon [3]: 64300 M⁻¹ s⁻¹; t½ [3]: 13 min; Kd [7]: 39.4 nM; koff [7]: 0.00323 s⁻¹; kon [7]: 81900 M⁻¹ s⁻¹; t½ [7]: 4 min
2.34 | 0.000187 | 80100 | 62 | 1.33 | 0.000125 | 94000 | 92 | 96 | < 0.25 | 6.23 | 0.000897 | 144000 | 13 | 5.5 | 0.00055 | 99000 | 21 | 3.4 | 0.000225 | H4H8085P (antibody, human IgG4, V domains shown, human IgG4 Fc (H4H prefix)) VH: QVQLVESGGGVVQPGRSLRLSCTASGFTFDNYGMHWVRQAPGKGLEWVAVISYDGSNTFYADSVKGRFTISRDNSKNALYLQMNSLRAEDTAVYYCAKDLEFDILIGYPFDSWGRGTLVTVSS VL: DIQLTQSPSFLSASVGDRVTITCWASQDISRYLAWYQQKPGKAPNLLIYAASTLQSGVPSRFSGSGSGTEFTLTINSLQPEDFATYYCQQLFSYPRTFGQGTKVEIK | kon [3]: 66000 M⁻¹ s⁻¹; t½ [3]: 51 min; Kd [7]: 8.3 nM; koff [7]: 0.00126 s⁻¹; kon [7]: 152000 M⁻¹ s⁻¹; t½ [7]: 9 min
– | – | – | – | – | – | – | – | 96 | 0.33 | – | – | – | – | – | – | – | – | – | – | H2M7086N (antibody, mouse IgG2, V domains shown, human variable domains with mouse IgG2 Fc (H2M prefix)) VH: QVQLVESGGGVVQPGRSLRLSCVVSGFTFSNYGMHWVRQGPGRGLEWLALIWYDGSDKYYAESVRGRFTISRDNSKNTVYLQMNSLRAEDTAMYYCTRDRIFDYWGQGTLVTVSS VL: AIQMTQSPSSLSASVGDRVTITCRASQDIRNDLGWYQHNPGKAPNLLIYAASTLQIGVPSRFRGSGSGTDFTLTISSLQPEDFATYYCLQDFDYPLSFGGGTKVEIR | –
– | – | – | – | – | – | – | – | 97 | 0.39 | – | – | – | – | – | – | – | – | – | – | H4H7086N (antibody, human IgG4, V domains shown, human IgG4 Fc form of 7086N; also called H4H7086P) VH: QVQLVESGGGVVQPGRSLRLSCVVSGFTFSNYGMHWVRQGPGRGLEWLALIWYDGSDKYYAESVRGRFTISRDNSKNTVYLQMNSLRAEDTAMYYCTRDRIFDYWGQGTLVTVSS VL: AIQMTQSPSSLSASVGDRVTITCRASQDIRNDLGWYQHNPGKAPNLLIYAASTLQIGVPSRFRGSGSGTDFTLTISSLQPEDFATYYCLQDFDYPLSFGGGTKVEIR | –
2.12 | 0.000235 | 111000 | 49 | 0.94 | 0.000158 | 168000 | 73 | 95 | < 0.25 | 7.31 | 0.00116 | 159000 | 10 | 2.24 | 0.000458 | 204000 | 25 | 385 | 0.0415 | H4H8067P (antibody, human IgG4, V domains shown, human IgG4 Fc (H4H prefix)) VH: QVQLVESGGGVVQPGRSLRLSCVASGFTFSNYGMHWVRQAPGKGLEWVALIWYDGSNKYFADSVKGRFTISRDNSKRMMFLEMNSLRAEDTAIYYCTRDRLFDFWGQGTLVTVSS VL: AIQMTQSPSSLSASVGDRVSITCRASQDIRHDLGWFHQKPGKAPKLLIYAASTLQSGVPSRFGGSGSGTDFTLTITSLQPEDFGTYYCLQDYNYPATFGQGTRLEIK | kon [3]: 108000 M⁻¹ s⁻¹; t½ [3]: 0.3 min; Kd [7]: 196 nM; koff [7]: 0.0603 s⁻¹; kon [7]: 307000 M⁻¹ s⁻¹; t½ [7]: 0.2 min
0.518 | 0.000375 | 723000 | 31 | 0.284 | 0.000204 | 720000 | 57 | 96 | < 0.25 | 1.56 | 0.00165 | 1.06e+06 | 7 | 0.809 | 0.00085 | 1.05e+06 | 14 | 0.565 | 0.000393 | H4H8084P (antibody, human IgG4, V domains shown, human IgG4 Fc (H4H prefix)) VH: QVQLVESGGGVVQPGRSLRLSCEASGFTFRNYGMHWVRQAPGKGLDWVSTIYYDGSDEYYSDSVKGRFTISRDNSKNTLYLQMNSLRAEDTAVYYCARDPPSFRYFDYWGQGTLVTVSS VL: DIQMTQSPSTLSASVGDRVTITCRASQSIRSWLTWYQQKPGKAPKVLIYKASTLERGVPSRFSGSGSGTEFTLTISSLQPEDFATYYCHQYSSYSYTFGQGTKLEIK | kon [3]: 695000 M⁻¹ s⁻¹; t½ [3]: 29 min; Kd [7]: 1.76 nM; koff [7]: 0.00178 s⁻¹; kon [7]: 1.01e+06 M⁻¹ s⁻¹; t½ [7]: 6 min
